Data reported in patent publication US20260015399A1 (Boehringer Ingelheim, published 2026).
*1 amine or outer side, *2 acyl side, *3 side chain or, on linkers, in order; H or OH if unused. Side-chain parts run from the residue outwards. The star is where a group is joined. C18 diacid = O=C(O)CCCCCCCCCCCCCCCCC(=O)*; γGlu = O=C(O)[C@H](CCC(=O)[*:2])N[*:1]; Isovaleryl = CC(C)CC(=O)*; Ahx = NCCCCCC(=O)O

T1: human NPY2 receptor (human, UniProt P49146 1-381)
T1 construct: whole, on cells; also called hNPY2-R; hNPY2R
T1 sequence (looked up): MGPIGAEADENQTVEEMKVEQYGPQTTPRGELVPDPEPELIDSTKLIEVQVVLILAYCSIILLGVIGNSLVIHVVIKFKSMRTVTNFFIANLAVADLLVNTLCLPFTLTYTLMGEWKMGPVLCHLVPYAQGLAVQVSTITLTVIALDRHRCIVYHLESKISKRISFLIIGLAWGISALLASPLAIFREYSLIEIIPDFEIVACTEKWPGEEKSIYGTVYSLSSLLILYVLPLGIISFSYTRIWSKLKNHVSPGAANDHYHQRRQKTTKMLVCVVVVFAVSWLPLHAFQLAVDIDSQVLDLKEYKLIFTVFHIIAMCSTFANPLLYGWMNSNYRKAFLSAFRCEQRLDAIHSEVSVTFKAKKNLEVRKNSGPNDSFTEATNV

B1: Compound 153 (peptide)
peptide: Isovaleryl-APEK([Ahx-γGlu-C18 diacid])PEELATPEELQRYYVSLRHYYNWLTRQRY-NH2
SMILES: CC(C)CC(=O)N[C@@H](C)C(=O)N1CCC[C@H]1C(=O)N[C@@H](CCC(=O)O)C(=O)N[C@@H](CCCCNC(=O)CCCCCNC(=O)CC[C@H](NC(=O)CCCCCCCCCCCCCCCCC(=O)O)C(=O)O)C(=O)N1CCC[C@H]1C(=O)N[C@@H](CCC(=O)O)C(=O)N[C@@H](CCC(=O)O)C(=O)N[C@@H](CC(C)C)C(=O)N[C@@H](C)C(=O)N[C@H](C(=O)N1CCC[C@H]1C(=O)N[C@@H](CCC(=O)O)C(=O)N[C@@H](CCC(=O)O)C(=O)N[C@@H](CC(C)C)C(=O)N[C@@H](CCC(N)=O)C(=O)N[C@@H](CCCNC(=N)N)C(=O)N[C@@H](Cc1ccc(O)cc1)C(=O)N[C@@H](Cc1ccc(O)cc1)C(=O)N[C@H](C(=O)N[C@@H](CO)C(=O)N[C@@H](CC(C)C)C(=O)N[C@@H](CCCNC(=N)N)C(=O)N[C@@H](Cc1c[nH]cn1)C(=O)N[C@@H](Cc1ccc(O)cc1)C(=O)N[C@@H](Cc1ccc(O)cc1)C(=O)N[C@@H](CC(N)=O)C(=O)N[C@@H](Cc1c[nH]c2ccccc12)C(=O)N[C@@H](CC(C)C)C(=O)N[C@H](C(=O)N[C@@H](CCCNC(=N)N)C(=O)N[C@@H](CCC(N)=O)C(=O)N[C@@H](CCCNC(=N)N)C(=O)N[C@@H](Cc1ccc(O)cc1)C(N)=O)[C@@H](C)O)C(C)C)[C@@H](C)O
B2: Compound 154 (peptide)
peptide: Isovaleryl-APEK([Ahx-γGlu-C18 diacid])PEEAATPEEIQRYYVALRHYYNWLTRQRY-NH2
SMILES: CC[C@H](C)[C@H](NC(=O)[C@H](CCC(=O)O)NC(=O)[C@H](CCC(=O)O)NC(=O)[C@@H]1CCCN1C(=O)[C@@H](NC(=O)[C@H](C)NC(=O)[C@H](C)NC(=O)[C@H](CCC(=O)O)NC(=O)[C@H](CCC(=O)O)NC(=O)[C@@H]1CCCN1C(=O)[C@H](CCCCNC(=O)CCCCCNC(=O)CC[C@H](NC(=O)CCCCCCCCCCCCCCCCC(=O)O)C(=O)O)NC(=O)[C@H](CCC(=O)O)NC(=O)[C@@H]1CCCN1C(=O)[C@H](C)NC(=O)CC(C)C)[C@@H](C)O)C(=O)N[C@@H](CCC(N)=O)C(=O)N[C@@H](CCCNC(=N)N)C(=O)N[C@@H](Cc1ccc(O)cc1)C(=O)N[C@@H](Cc1ccc(O)cc1)C(=O)N[C@H](C(=O)N[C@@H](C)C(=O)N[C@@H](CC(C)C)C(=O)N[C@@H](CCCNC(=N)N)C(=O)N[C@@H](Cc1c[nH]cn1)C(=O)N[C@@H](Cc1ccc(O)cc1)C(=O)N[C@@H](Cc1ccc(O)cc1)C(=O)N[C@@H](CC(N)=O)C(=O)N[C@@H](Cc1c[nH]c2ccccc12)C(=O)N[C@@H](CC(C)C)C(=O)N[C@H](C(=O)N[C@@H](CCCNC(=N)N)C(=O)N[C@@H](CCC(N)=O)C(=O)N[C@@H](CCCNC(=N)N)C(=O)N[C@@H](Cc1ccc(O)cc1)C(N)=O)[C@@H](C)O)C(C)C
B3: Compound 157 (peptide)
peptide: Isovaleryl-APAK([Ahx-γGlu-C18 diacid])PEEAASPEELQRYYVALRHYYNWLTRQRY-NH2
SMILES: CC(C)CC(=O)N[C@@H](C)C(=O)N1CCC[C@H]1C(=O)N[C@@H](C)C(=O)N[C@@H](CCCCNC(=O)CCCCCNC(=O)CC[C@H](NC(=O)CCCCCCCCCCCCCCCCC(=O)O)C(=O)O)C(=O)N1CCC[C@H]1C(=O)N[C@@H](CCC(=O)O)C(=O)N[C@@H](CCC(=O)O)C(=O)N[C@@H](C)C(=O)N[C@@H](C)C(=O)N[C@@H](CO)C(=O)N1CCC[C@H]1C(=O)N[C@@H](CCC(=O)O)C(=O)N[C@@H](CCC(=O)O)C(=O)N[C@@H](CC(C)C)C(=O)N[C@@H](CCC(N)=O)C(=O)N[C@@H](CCCNC(=N)N)C(=O)N[C@@H](Cc1ccc(O)cc1)C(=O)N[C@@H](Cc1ccc(O)cc1)C(=O)N[C@H](C(=O)N[C@@H](C)C(=O)N[C@@H](CC(C)C)C(=O)N[C@@H](CCCNC(=N)N)C(=O)N[C@@H](Cc1c[nH]cn1)C(=O)N[C@@H](Cc1ccc(O)cc1)C(=O)N[C@@H](Cc1ccc(O)cc1)C(=O)N[C@@H](CC(N)=O)C(=O)N[C@@H](Cc1c[nH]c2ccccc12)C(=O)N[C@@H](CC(C)C)C(=O)N[C@H](C(=O)N[C@@H](CCCNC(=N)N)C(=O)N[C@@H](CCC(N)=O)C(=O)N[C@@H](CCCNC(=N)N)C(=O)N[C@@H](Cc1ccc(O)cc1)C(N)=O)[C@@H](C)O)C(C)C
B4: Compound 156 (peptide)
peptide: Isovaleryl-APEK([Ahx-γGlu-C18 diacid])PEEAAEPEEIQRYYVALRHYYNWLTRQRY-NH2
SMILES: CC[C@H](C)[C@H](NC(=O)[C@H](CCC(=O)O)NC(=O)[C@H](CCC(=O)O)NC(=O)[C@@H]1CCCN1C(=O)[C@H](CCC(=O)O)NC(=O)[C@H](C)NC(=O)[C@H](C)NC(=O)[C@H](CCC(=O)O)NC(=O)[C@H](CCC(=O)O)NC(=O)[C@@H]1CCCN1C(=O)[C@H](CCCCNC(=O)CCCCCNC(=O)CC[C@H](NC(=O)CCCCCCCCCCCCCCCCC(=O)O)C(=O)O)NC(=O)[C@H](CCC(=O)O)NC(=O)[C@@H]1CCCN1C(=O)[C@H](C)NC(=O)CC(C)C)C(=O)N[C@@H](CCC(N)=O)C(=O)N[C@@H](CCCNC(=N)N)C(=O)N[C@@H](Cc1ccc(O)cc1)C(=O)N[C@@H](Cc1ccc(O)cc1)C(=O)N[C@H](C(=O)N[C@@H](C)C(=O)N[C@@H](CC(C)C)C(=O)N[C@@H](CCCNC(=N)N)C(=O)N[C@@H](Cc1c[nH]cn1)C(=O)N[C@@H](Cc1ccc(O)cc1)C(=O)N[C@@H](Cc1ccc(O)cc1)C(=O)N[C@@H](CC(N)=O)C(=O)N[C@@H](Cc1c[nH]c2ccccc12)C(=O)N[C@@H](CC(C)C)C(=O)N[C@H](C(=O)N[C@@H](CCCNC(=N)N)C(=O)N[C@@H](CCC(N)=O)C(=O)N[C@@H](CCCNC(=N)N)C(=O)N[C@@H](Cc1ccc(O)cc1)C(N)=O)[C@@H](C)O)C(C)C
B5: Compound 155 (peptide)
peptide: Isovaleryl-APEK([Ahx-γGlu-C18 diacid])PEEDATPEELQRYYVSLRHYYNWLSRQRY-NH2
SMILES: CC(C)CC(=O)N[C@@H](C)C(=O)N1CCC[C@H]1C(=O)N[C@@H](CCC(=O)O)C(=O)N[C@@H](CCCCNC(=O)CCCCCNC(=O)CC[C@H](NC(=O)CCCCCCCCCCCCCCCCC(=O)O)C(=O)O)C(=O)N1CCC[C@H]1C(=O)N[C@@H](CCC(=O)O)C(=O)N[C@@H](CCC(=O)O)C(=O)N[C@@H](CC(=O)O)C(=O)N[C@@H](C)C(=O)N[C@H](C(=O)N1CCC[C@H]1C(=O)N[C@@H](CCC(=O)O)C(=O)N[C@@H](CCC(=O)O)C(=O)N[C@@H](CC(C)C)C(=O)N[C@@H](CCC(N)=O)C(=O)N[C@@H](CCCNC(=N)N)C(=O)N[C@@H](Cc1ccc(O)cc1)C(=O)N[C@@H](Cc1ccc(O)cc1)C(=O)N[C@H](C(=O)N[C@@H](CO)C(=O)N[C@@H](CC(C)C)C(=O)N[C@@H](CCCNC(=N)N)C(=O)N[C@@H](Cc1c[nH]cn1)C(=O)N[C@@H](Cc1ccc(O)cc1)C(=O)N[C@@H](Cc1ccc(O)cc1)C(=O)N[C@@H](CC(N)=O)C(=O)N[C@@H](Cc1c[nH]c2ccccc12)C(=O)N[C@@H](CC(C)C)C(=O)N[C@@H](CO)C(=O)N[C@@H](CCCNC(=N)N)C(=O)N[C@@H](CCC(N)=O)C(=O)N[C@@H](CCCNC(=N)N)C(=O)N[C@@H](Cc1ccc(O)cc1)C(N)=O)C(C)C)[C@@H](C)O
B6: Compound 158 (peptide)
peptide: Isovaleryl-APEK([Ahx-γGlu-C18 diacid])PPEAASPEEIQRYYVALRHYYNWLTRQRY-NH2
SMILES: CC[C@H](C)[C@H](NC(=O)[C@H](CCC(=O)O)NC(=O)[C@H](CCC(=O)O)NC(=O)[C@@H]1CCCN1C(=O)[C@H](CO)NC(=O)[C@H](C)NC(=O)[C@H](C)NC(=O)[C@H](CCC(=O)O)NC(=O)[C@@H]1CCCN1C(=O)[C@@H]1CCCN1C(=O)[C@H](CCCCNC(=O)CCCCCNC(=O)CC[C@H](NC(=O)CCCCCCCCCCCCCCCCC(=O)O)C(=O)O)NC(=O)[C@H](CCC(=O)O)NC(=O)[C@@H]1CCCN1C(=O)[C@H](C)NC(=O)CC(C)C)C(=O)N[C@@H](CCC(N)=O)C(=O)N[C@@H](CCCNC(=N)N)C(=O)N[C@@H](Cc1ccc(O)cc1)C(=O)N[C@@H](Cc1ccc(O)cc1)C(=O)N[C@H](C(=O)N[C@@H](C)C(=O)N[C@@H](CC(C)C)C(=O)N[C@@H](CCCNC(=N)N)C(=O)N[C@@H](Cc1c[nH]cn1)C(=O)N[C@@H](Cc1ccc(O)cc1)C(=O)N[C@@H](Cc1ccc(O)cc1)C(=O)N[C@@H](CC(N)=O)C(=O)N[C@@H](Cc1c[nH]c2ccccc12)C(=O)N[C@@H](CC(C)C)C(=O)N[C@H](C(=O)N[C@@H](CCCNC(=N)N)C(=O)N[C@@H](CCC(N)=O)C(=O)N[C@@H](CCCNC(=N)N)C(=O)N[C@@H](Cc1ccc(O)cc1)C(N)=O)[C@@H](C)O)C(C)C

Molecular target: T1, human NPY2 receptor
Assay: RLB: displacement of 125I-PYY(1-36) from hNPY2R membranes

Going from B1 to B2, the Ki falls from 6.8 nM to 3.71 nM (1.8-fold).

First: B3
Second: B4
The Ki of the first is 2.5-fold lower: 1.68 nM for the first, 4.2 nM for the second.

Going from B5 to B6, the Ki falls from 7.6 nM to 0.58 nM (13-fold). The second binds more tightly here.
